# Experimental data published in the RNAGym collection of RNA variant scans (doi:10.1021/acssynbio.7b00057).
# B1: Pistol ribozyme (parent)
# chain: GGGUCGUUGUUCCAUAAUCGCGUGGAUAUGGCACGCAAGUUUCUACCGGGCACCGUAAAUGUCCGACUGGAGCCGUUCGGGCGGCUAUAAACAGACCUCAGGCCCGAAGCGUGGCGGCACCUGCCGCCGGUGGUAAAAAAGAUCGGAAGAGCACACGUCU
# Variants of: B1
# Test: aptazyme ON/OFF ratio, guanine; higher = stronger switching; co-transcriptional cleavage with and without guanine
row,Variant,aptazyme ON/OFF ratio
1,GGGUCGGCCUACAAUAAUCGCGUGGAUAUGGCACGCAAGUUUCUACCGGGCACCGUAAAUGUCCGACUGGAGCCGUUCGGGCGGCUAUAAACAGACCUCAGGCCCGAAGCGUGGCGGCACCUGCCGCCGGUGGUAAAAAAGAUCGGAAGAGCACACGUCU [U7G U8C G9C U11A C13A],1.09
2,GGGUCGGCCUACUAUAAUCGCGUGGAUAUGGCACGCAAGUUUCUACCGGGCACCGUAAAUGUCCGACUGGAGCCGUUCGGGCGGCUAUAAACAGACCUCAGGCCCGAAGCGUGGCGGCACCUGCCGCCGGUGGUAAAAAAGAUCGGAAGAGCACACGUCU [U7G U8C G9C U11A C13U],1.18
3,GGGUCGGCCUACGAUAAUCGCGUGGAUAUGGCACGCAAGUUUCUACCGGGCACCGUAAAUGUCCGACUGGAGCCGUUCGGGCGGCUAUAAACAGACCUCAGGCCCGAAGCGUGGCGGCACCUGCCGCCGGUGGUAAAAAAGAUCGGAAGAGCACACGUCU [U7G U8C G9C U11A C13G],1.06
4,GGGUCGGCCUAAGAUAAUCGCGUGGAUAUGGCACGCAAGUUUCUACCGGGCACCGUAAAUGUCCGACUGGAGCCGUUCGGGCGGCUAUAAACAGACCUCAGGCCCGAAGCGUGGCGGCACCUGCCGCCGGUGGUAAAAAAGAUCGGAAGAGCACACGUCU [U7G U8C G9C U11A C12A C13G],1.14
5,GGGUCGGCCUAAUAUAAUCGCGUGGAUAUGGCACGCAAGUUUCUACCGGGCACCGUAAAUGUCCGACUGGAGCCGUUCGGGCGGCUAUAAACAGACCUCAGGCCCGAAGCGUGGCGGCACCUGCCGCCGGUGGUAAAAAAGAUCGGAAGAGCACACGUCU [U7G U8C G9C U11A C12A C13U],1.13
6,GGGUCGGCCUAAAAUAAUCGCGUGGAUAUGGCACGCAAGUUUCUACCGGGCACCGUAAAUGUCCGACUGGAGCCGUUCGGGCGGCUAUAAACAGACCUCAGGCCCGAAGCGUGGCGGCACCUGCCGCCGGUGGUAAAAAAGAUCGGAAGAGCACACGUCU [U7G U8C G9C U11A C12A C13A],1.11
7,GGGUCGGCCUCACAUAAUCGCGUGGAUAUGGCACGCAAGUUUCUACCGGGCACCGUAAAUGUCCGACUGGAGCCGUUCGGGCGGCUAUAAACAGACCUCAGGCCCGAAGCGUGGCGGCACCUGCCGCCGGUGGUAAAAAAGAUCGGAAGAGCACACGUCU [U7G U8C G9C U11C C12A],1.9
8,GGGUCGGCCUCAAAUAAUCGCGUGGAUAUGGCACGCAAGUUUCUACCGGGCACCGUAAAUGUCCGACUGGAGCCGUUCGGGCGGCUAUAAACAGACCUCAGGCCCGAAGCGUGGCGGCACCUGCCGCCGGUGGUAAAAAAGAUCGGAAGAGCACACGUCU [U7G U8C G9C U11C C12A C13A],1.11
9,GGGUCGGCCUAUAAUAAUCGCGUGGAUAUGGCACGCAAGUUUCUACCGGGCACCGUAAAUGUCCGACUGGAGCCGUUCGGGCGGCUAUAAACAGACCUCAGGCCCGAAGCGUGGCGGCACCUGCCGCCGGUGGUAAAAAAGAUCGGAAGAGCACACGUCU [U7G U8C G9C U11A C12U C13A],1.09
10,GGGUCGGCCUAUUAUAAUCGCGUGGAUAUGGCACGCAAGUUUCUACCGGGCACCGUAAAUGUCCGACUGGAGCCGUUCGGGCGGCUAUAAACAGACCUCAGGCCCGAAGCGUGGCGGCACCUGCCGCCGGUGGUAAAAAAGAUCGGAAGAGCACACGUCU [U7G U8C G9C U11A C12U C13U],1.22
11,GGGUCGGCCUAUGAUAAUCGCGUGGAUAUGGCACGCAAGUUUCUACCGGGCACCGUAAAUGUCCGACUGGAGCCGUUCGGGCGGCUAUAAACAGACCUCAGGCCCGAAGCGUGGCGGCACCUGCCGCCGGUGGUAAAAAAGAUCGGAAGAGCACACGUCU [U7G U8C G9C U11A C12U C13G],1.13
12,GGGUCGGCCUAACAUAAUCGCGUGGAUAUGGCACGCAAGUUUCUACCGGGCACCGUAAAUGUCCGACUGGAGCCGUUCGGGCGGCUAUAAACAGACCUCAGGCCCGAAGCGUGGCGGCACCUGCCGCCGGUGGUAAAAAAGAUCGGAAGAGCACACGUCU [U7G U8C G9C U11A C12A],1.19
13,GGGUCGGCCUAUCAUAAUCGCGUGGAUAUGGCACGCAAGUUUCUACCGGGCACCGUAAAUGUCCGACUGGAGCCGUUCGGGCGGCUAUAAACAGACCUCAGGCCCGAAGCGUGGCGGCACCUGCCGCCGGUGGUAAAAAAGAUCGGAAGAGCACACGUCU [U7G U8C G9C U11A C12U],1.23
14,GGGUCGGCCUAGCAUAAUCGCGUGGAUAUGGCACGCAAGUUUCUACCGGGCACCGUAAAUGUCCGACUGGAGCCGUUCGGGCGGCUAUAAACAGACCUCAGGCCCGAAGCGUGGCGGCACCUGCCGCCGGUGGUAAAAAAGAUCGGAAGAGCACACGUCU [U7G U8C G9C U11A C12G],1.2
15,GGGUCGGCCUCCCAUAAUCGCGUGGAUAUGGCACGCAAGUUUCUACCGGGCACCGUAAAUGUCCGACUGGAGCCGUUCGGGCGGCUAUAAACAGACCUCAGGCCCGAAGCGUGGCGGCACCUGCCGCCGGUGGUAAAAAAGAUCGGAAGAGCACACGUCU [U7G U8C G9C U11C],1.87
16,GGGUCGGCCUAGGAUAAUCGCGUGGAUAUGGCACGCAAGUUUCUACCGGGCACCGUAAAUGUCCGACUGGAGCCGUUCGGGCGGCUAUAAACAGACCUCAGGCCCGAAGCGUGGCGGCACCUGCCGCCGGUGGUAAAAAAGAUCGGAAGAGCACACGUCU [U7G U8C G9C U11A C12G C13G],1.16
17,GGGUCGGCCUAGUAUAAUCGCGUGGAUAUGGCACGCAAGUUUCUACCGGGCACCGUAAAUGUCCGACUGGAGCCGUUCGGGCGGCUAUAAACAGACCUCAGGCCCGAAGCGUGGCGGCACCUGCCGCCGGUGGUAAAAAAGAUCGGAAGAGCACACGUCU [U7G U8C G9C U11A C12G C13U],1.1
18,GGGUCGGCCUAGAAUAAUCGCGUGGAUAUGGCACGCAAGUUUCUACCGGGCACCGUAAAUGUCCGACUGGAGCCGUUCGGGCGGCUAUAAACAGACCUCAGGCCCGAAGCGUGGCGGCACCUGCCGCCGGUGGUAAAAAAGAUCGGAAGAGCACACGUCU [U7G U8C G9C U11A C12G C13A],1.13
